Measurements taken from patent publication US20090192048A1, “METHOD OF PRODUCING A […] AGENT FOR BINDING A LIGAND” (priority 2005, published 2009).
Several values for one entry are separate records, joined by “and”; a condition that tells them apart may be missing. Equal entries are not always repeated. Ends that are not written are not given here.

Legend:
Format in all cases: physicochemical
[1] = Retention of peptides on Costar polypropylene V-bottom wells; conditions: 400V scan
Procedure: (§1) The retention of peptides 2DOS-1 to 2DOS-16 (see above) on polypropylene and polystyrene surfaces was compared:
(§2) 5 mM tris-HCl (pH 8.0) in 75% (v/v) aqueous acetonitrile was used as the solvent for the peptides and for TAMRA.
(§3) 20 μl aliquots of 5 μM peptides 2DOS-1 to 2DOS-16 and 5 μM TAMRA were pipetted into the wells of a Costar V-bottomed polypropylene microtitre plate, a Greiner V-bottomed polypropylene microtitre plate, and a Greiner V-bottomed polystyrene microtitre plate according to the scheme shown in FIG. 26:
(§4) The peptide samples were allowed to evaporate to dryness in the dark.
(§5) The peptide samples in the top two rows of the microtitre plates were then incubated for 15 minutes at room temperature in 250 μl of 1 M NaCl in 10 mM tris-HCl (pH 8.0).
(§6) After incubation, the wash buffer was pipetted up and down eight times in the well before removing the supernatant.
(§7) The washed and untreated peptide samples were then resuspended in 50 μl of 10 mM tris-HCl (pH 8.0) in 50% (v/v) aqueous acetonitrile.
(§8) The microtitre plates were imaged at 200 μm resolution on a Typhoon Trio Plus variable mode imager (Amersham Biosciences) with the green (532 nm) laser and the 580 BP 30 filter at the PMT voltages indicated below and at normal sensitivity. The scan height was set at +3 mm and the sample was pressed during scanning.
(§9) The fluorescence images were analysed using ImageQuant TL v2003.03 (Amersham Biosciences).

[2] = Retention of peptides on Greiner polystyrene V-bottom wells; conditions: 400V scan
Procedure: as §1, §2, §3, §4, §5, §6, §7, §8, §9

[3] = Retention of peptides in flat-bottomed polypropylene wells; conditions: flat-bottom wells; 500V scan; unwashed
Procedure: (§10) The retention of peptides 2DOS-1 to 2DOS-16 (see above) on polypropylene wells of different geometries was investigated:
(§11) 10 mM tris-HCl (pH 8.0) in 50% (v/v) aqueous acetonitrile was used as the solvent for the peptides and for TAMRA.
(§12) 1 μl aliquots of 10 μM peptides 2DOS-1 to 2DOS-16 and 10 μM TAMRA were pipetted into the wells of a Costar V-bottomed polypropylene microtitre plate and a Greiner flat-bottomed polypropylene microtitre plate according to the following scheme as shown in FIG. 22:
as §4
(§13) The peptide samples in the top two rows of the microtitre plates were then incubated for 15′ minutes at room temperature in 250 μl of 1 M NaCl in 10 mM tris-HCl (pH 8.0).
as §6, §7
(§14) The microtitre plates were imaged at 200 μm resolution on a Typhoon Trio Plus variable mode imager (Amersham Biosciences) with the green (532 nm) laser and the 580 BP 30 filter at the PMT voltages indicated below and at normal sensitivity. The scan height was set at the platen and the sample was pressed during, scanning.
as §9

[4] = Retention of peptides on Greiner polypropylene V-bottom wells; conditions: 400V scan
Procedure: as §1, §2, §3, §4, §5, §6, §7, §8, §9

[5] = Retention of peptides in V-bottomed polypropylene wells; conditions: V-bottom wells, 500V scan
Procedure: as §10, §11, §12, §4, §13, §6, §7, §14, §9

[6] = Retention of peptides P1-1 to P1-5 on a polypropylene sheet after successive washes; conditions: for Average fluorescence, control array / Corrected signal, control array: unwashed control array
Procedure: Further experiments were undertaken to investigate the retention of peptides P1-1 to, P1-5 and P2-1 to P2-2, shown in Table 3, on a polypropylene surface.
The polypropylene sheet was wiped with 50% (v/v) aqueous acetonitrile prior to use.
8× replicate 20 nl volumes of 1 μM peptides P1-1 to P1-5 and P2-1 to P2-2 and TAMRA in dimethyl sulphoxide (DMSO) were dispensed at 1 mm spacing to a 3″×1″×1 mm polypropylene sheet using the Piezorray system (PerkinElmer LAS). 500 drops were pre-dispensed using the ‘side shoot’ option and the tuning was set to 72V for 30 μs.
The slide was imaged at 10 μm resolution on a Typhoon Trio Plus variable mode imager (Amersham Biosciences) with the green (532 nm) laser and the 580 BP 30 filter at a PMT voltage of 600 V and at normal sensitivity. The scan height was set at the platen and the samples were pressed during scanning. The fluorescence image was analysed using ImageQuant TL v2003.03 (Amersham Biosciences).
The lower half of the slide (containing the test array) was then washed in 100 ml of 1 M NaCl containing 10 mM tris-HCl (pH 8.0) for one minute and were re-scanned as described above.
The same half of the slide was then washed for a second time in 100 ml of 1 M NaCl containing 10 mM tris-HCl (pH 8.0) for 30 minutes and re-scanned as described above.
The same half of the slide was then washed for a third time in 100 ml of water for 30 minutes and re-scanned as described above.

[7] = washed 15 minutes in 1 M NaCl in 10 mM tris-HCl (pH 8.0)
[8] = after first wash scan, slide background subtracted
[9] = after first wash: 1 M NaCl/10 mM tris-HCl (pH 8.0), one minute
[10] = after first wash: 1 M NaCl/10 mM tris-HCl (pH 8.0), one minute, background subtracted
[11] = after second wash scan, background subtracted
[12] = after second wash: 1 M NaCl/10 mM tris-HCl (pH 8.0), 30 minutes
[13] = after second wash: 1 M NaCl/10 mM tris-HCl (pH 8.0), 30 minutes, background subtracted
[14] = after third wash scan, background subtracted
[15] = after third wash: water, 30 minutes
[16] = after third wash: water, 30 minutes, background subtracted

Substance	Average fluorescence, control array ([6]; after first wash scan)	Corrected signal, control array [6, 8]	Average fluorescence, test array [6, 9]	Corrected signal, test array [6, 10]	Average fluorescence, control array ([6]; after second wash scan)	Corrected signal, control array [6, 11]	Average fluorescence, test array [6, 12]	Corrected signal, test array [6, 13]	Average fluorescence, control array ([6]; after third wash scan)	Corrected signal, control array [6, 14]	Average fluorescence, test array [6, 15]	Corrected signal, test array [6, 16]	further results
TAMRA [reference compound]	–	–	–	–	–	–	–	–	–	–	–	–	Percent retention [1]: 3%; Untreated fluorescence ([1]; unwashed): 11,786,211; Retained fluorescence [1, 7]: 386,629; Percent retention [2]: 1%; Untreated fluorescence ([2]; unwashed): 1,051,154; Retained fluorescence [2, 7]: 10,004; Untreated fluorescence [3]: 18,396,859 and 20,662,891 and 20,649,165; Percent retention [4]: 1%; Untreated fluorescence ([4]; unwashed): 6,199,206; Retained fluorescence [4, 7]: 64,916; Percent retention [5]: 5% and 4% and 6%; Untreated fluorescence ([5]; unwashed): 12,610,993 and 15,392,751 and 17,471,866; Retained fluorescence [5, 7]: 640,684 and 686,863 and 998,320
TAMRA-F-G-F-G-F-G-F-G-F-G-F-S-F-A-F-D-F-G-F ({TAMRA}-FGFGFGFGFGFSFAFDFGF) [Peptide P1-5]	199,347,483	52,655,810	201,991,732	47,493,774	190,847,825	53,567,975	167,865,473	35,418,169	183,492,293	49,585,053	147,812,043	23,514,817	Retention on polypropylene surface (in words) ([6]; compared among P1-1 to P1-5, chain length of 19 amino acids): highest retention
TAMRA-F-G-F-G-F-G-F-G-F-S-F-A-F-D-F-G-F ({TAMRA}-FGFGFGFGFSFAFDFGF) [Peptide P1-4]	187,287,630	40,595,958	189,823,310	35,325,352	179,942,418	42,662,569	159,100,527	26,653,223	176,102,487	42,195,247	135,681,173	11,383,947	–
TAMRA-F-G-F-G-F-G-F-S-F-A-F-D-F-G-F ({TAMRA}-FGFGFGFSFAFDFGF) [Peptide P1-3]	192,743,469	46,051,796	171,197,973	16,700,014	187,310,655	50,030,806	148,725,456	16,278,152	184,219,147	50,311,907	125,717,642	1,420,417	–
TAMRA-F-G-F-G-F-S-F-A-F-D-F-G-F ({TAMRA}-FGFGFSFAFDFGF) [Peptide P1-2]	200,280,129	53,588,457	170,078,218	15,580,260	196,080,891	58,801,042	135,695,639	3,248,336	185,727,868	51,820,628	126,193,156	1,895,931	–
TAMRA-F-G-F-S-F-A-F-D-F-G-F ({TAMRA}-FGFSFAFDFGF) [Peptide P1-1]	244,263,013	97,571,341	157,624,537	3,126,578	225,863,933	88,584,083	127,216,792	−5,230,512	218,342,010	84,434,769	124,941,941	644,716	–
